Consider 40 sequences from the nanobody polyreactivity screen of Harvey et al. (2022).

The data set can be described thus: yeast display, Sf9 membrane polyspecificity reagent, FACS + sequencing; frameworks hold sequencing errors. The procedure, abridged:
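Polyreactivity labels are assigned by the sorting gate from which each nanobody was recovered. The gates were low and high (top ~1%), set on anti-HA fluorescence for expression and streptavidin fluorescence for reagent binding. Before sorting, galactose-induced (36–48 hours) yeast display cells were stained for 1 hour at 4 °C with 10% biotinylated, detergent-solubilized Sf9 membrane reagent.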
“QVQLVESGGGLVQAGGSLRLSCAASGSIFSSNAMGWYRQAPGKERELVASIRRGGSTYYADSVKGRFTISRDNAMNTVYLQMNSLKPEDTAVYDCARRYVPWYATYDHWGQGTQVTVSS”: the “polyreactivity (PSR sort gate)” value was “high polyreactivity”.

Consider “QVQLVESGGGLVQAGGSLRLSCAASGSIFSSNTMGWYRQAPGKERELVAAITSGGGTYYADSVKGRFTISRDNAKNTVYLQMNSLKPEDTAVYYCAAQRDYKSSPSYDYWGQGTQVNVSS”, for which the “polyreactivity (PSR sort gate)” value is recorded as “low polyreactivity”. For “QVQLVESGGGLVQAGGSLRLSCAASGSIFSSYALGWYRQAPGKERELVAAISQSGGDTYYADSVKGRFTISRDNAKNTVYLQMNSLKPEDTAVYYCAADWAYYVASYLYYTFDYWGQGTQVTVSS” the value was “low polyreactivity”; for “QVQLVESGGGLVQAGGSLRLSCAASGSIFSSYAMGWYRQAPGKERELVAGISRRGGSTYYADSVKGRFTISRDNAKNTVYLLMNSLKPEDTAVYYCNARYAGSDLDYWGQGTQVTVSS”, “high polyreactivity”; for “QVQLVESGGGLVQAGGSLRLSCAASGSIFSSYAMGWYRQAPGKERELVAVITSGDSTNYADSVKGRFTISRDNAKNTVYLQMNSLKPEDTAVYYCNADSYGGSDRYDYWGQGTQVTVSS”, “low polyreactivity”.

Take “QVQLVESGGGLVQAGGSLRLSCAASGSIFSTNAMGWYRQAPGKERELVAAITYSGSLTYYADSVKGRFTISRDNAKNTVYLQMNSLKPEDTAVYYCAADTSWYSWWFDYWGQGTQVTVSS”: the “polyreactivity (PSR sort gate)” value was “low polyreactivity”. For “QVQLVESGGGLVQAGGSLRLSCAASGSIFSTYAMGGYRQAPGKERELVAAIRDSGDRTYYADSVKGRFTISRDNAKNTVYLQMNSLKPDDTAVYYCYARWQEPLKYDYWGQGTPVTVSS” the value was “low polyreactivity”.

In the case of “QVQLVESGGGLVQAGGSLRLSCAASGSIFSTYAMGWYRQAPGKERELVAAISSSGSTYYADSVKGRFTLSRDNAKNTVYLQMNSLKPEDTAVYYCAAGKYRRTSRYRYDSWGQGTQVTVSS”, the “polyreactivity (PSR sort gate)” value is given as “high polyreactivity”.

As to “QVQLVESGGGLVQAGGSLRLSCAASGSIFSVNAMGWYRQAPGKERELVAGITISGGRTYYADSVKGRFTISRDNAKNTVYLEMNSLKPEDTAVYYCAADWVYPPGLKDSVHFGEYDYWGQGTQVTVSS”, the “polyreactivity (PSR sort gate)” value is reported as “low polyreactivity”.

As for “QVQLVESGGGLVQAGGSLRLSCAASGSIFSVNTKGWYRQAPGKERELVATIRTGDSTNYADSVKGLFTISRDNAKNTVYLQMNSLKPEDTAFYYCAAEWSSLNFDYWGQGTQVTVSS”, the “polyreactivity (PSR sort gate)” value was “low polyreactivity”. For “QVQLVESGGGLVQAGGSLRLSCAASGSIFSVYAMGWYRPAPGKERELVASITNDGSTNYADSVKGRFTISRDNAKNTVYLQMNSLKPEDTAVYYCNADSYTKLDYWGQGTQVTVSS”, the “polyreactivity (PSR sort gate)” value is listed as “low polyreactivity”. For the sequence “QVQLVESGGGLVQAGGSLRLSCAASGSIFSVYAMGWYRQAPGKERELVATITWSGGRTYYADSVKGRFTISRDNAKNTVYLQMNSLKPEDTAVYYCAATSWWATTGFDYWGQGTQVTVSS”, the “polyreactivity (PSR sort gate)” value is recorded as “low polyreactivity”.

Take “QVQLVESGGGLVQAGGSLRLSCAASGSIFSVYAMGWYRQAPGKERELVATITWSGGRTYYADSVKGRYTISRDNAKNTVYLQMNSLKPEDTAVYYCAATSWWATTGFDYWGQGTQVTVSS”: the “polyreactivity (PSR sort gate)” value is “low polyreactivity”. The result for “QVQLVESGGGLVQAGGSLRLSCAASGSIFSWYAMGWYRQAPGKERELVAAISSRGGSTYYADSVKGRFTISRDNAKNTVYLQMNSLKPEDTAVYYCNTTYGYSTYWASGKYDYWGQGTQVTVSS” reads “low polyreactivity”; that for “QVQLVESGGGLVQAGGSLRLSCAASGSIFSYYALGWYRQAPGKERELVAAISYSGGTTYYADSVKGRFTISRDNAKNTVYLQMNSLKPEDTAVYYCAAQWWWNRPVRYEYWGQGTQVTVSS”, “low polyreactivity”.

Take “QVQLVESGGGLVQAGGSLRLSCAASGSIFSYYAMGWSRQAPGKERELVAAISRSGTSTYYADSVKGRFTISRDNAKNTVSLQMNSLKPEVNAVDYCNARWGFSRHRLMGYWGQGTQVSVSS”: the “polyreactivity (PSR sort gate)” value is given as “high polyreactivity”.

On to “QVQLVESGGGLVQAGGSLRLSCAASGSIFSYYAMGWYRQAPGKERELVAAISKRGASTYYADSVKGRFTISRDNAKNTVYLQMNSLKPEDTAVYYCAARPYGGGRRSIYYYWGQGTQVTVSS”, for which the “polyreactivity (PSR sort gate)” value is given as “high polyreactivity”. The result for “QVQLVESGGGLVQAGGSLRLSCAASGSIFSYYAMGWYRQAPGKERELVAAISKRGASTYYADSVKGRFTISRDNAKNTVYLQMNSLKPEDTAVYYCNRVLYDHSFPYNRGYDYWGQGTQVTVSS” reads “high polyreactivity”; that for “QVQLVESGGGLVQAGGSLRLSCAASGSIFSYYAMGWYRQAPGKERELVAAISYSGSDTYYADSVKGRFTISRDNAKNTVSFQMNSLKPEDTAVYYCAAEDPSYSYHYWGQGTQVTVSS”, “low polyreactivity”; that for “QVQLVESGGGLVQAGGSLRLSCAASGSIFSYYAMGWYRQAPGKERELVAAITRSGSKNYADSVKGRFTISRDNAKNTVYLQMNSLKPEDTAVYYCAAETDESDWYYYWGQGTQVTVSS”, “high polyreactivity”. For “QVQLVESGGGLVQAGGSLRLSCAASGSIFSYYAMGWYRQAPGKERELVAAITVRGGSTYYADSVKGRFTISRDNAKNTVYLQMNSLKPEDTAVYYCAADWLDESFSYGPYYYWGQGTQVTVSS” the value was “low polyreactivity”. For the sequence “QVQLVESGGGLVQAGGSLRLSCAASGSIFSYYAMGWYRQAPGKERELVAGISISTGSTYYADSVKGRFTISRDNAKNTVYLQMNSLIPEDTAVYYCNASALDPLYAKDDYWGQGTQVTVSS”, the “polyreactivity (PSR sort gate)” value is “low polyreactivity”. In the case of “QVQLVESGGGLVQAGGSLRLSCAASGSIFSYYAMGWYRQAPGKERELVARITRGGDGTYYADSVKGRFTISRDNAKNTDYLQMNSLKPEDTAVYYCARRQVLYTRDFEYDYWGQGTQVTVSS”, the “polyreactivity (PSR sort gate)” value is reported as “low polyreactivity”.

Consider “QVQLVESGGGLVQAGGSLRLSCAASGSIFSYYAMGWYRQAPGKERELVASISWNGTSTYYADSVKGRFTISRDNAKNTVDLQMNSLKPEDTADYYCNVRFNYRGTYDYWGQGTQVTVSS”, for which the “polyreactivity (PSR sort gate)” value is on record as “low polyreactivity”. The result for “QVQLVESGGGLVQAGGSLRLSCAASGSIFSYYAMGWYRQATAKERDLVAAISTSCGNTYYADSVKGRFTISRDNPKNRVYVQMNSLKPEDTAVYYCAAENVWAWFYGYDYWGQGTQVTVSS” reads “high polyreactivity”; that for “QVQLVESGGGLVQAGGSLRLSCAASGSIFSYYAMGWYRQEPGKERELVAAITWSGTRTYYADSVKGRFTISRDNAKNTVYLQMISLKPEDTAVYYCATEYDYWDDSYDSWGLGTQVTVSS”, “low polyreactivity”; that for “QVQLVESGGGLVQAGGSLRLSCAASGSIFSYYGMGWYRQAPGKERELVAAITDGDGTNYADSVKGRFTISRDNAKNTVYLQMNSLKPEDTAVYYCARDDRDIRGESGREGFLYDYWGQGTQVTVSS”, “low polyreactivity”.

“QVQLVESGGGLVQAGGSLRLSCAASGSIFSYYTMGWYRQAPGKERELVAAITRGGRTSYADSVKGRFTISRDNAKNTVYLQMNSLKPEDTAVYYCAADYWYFTHQLSTYGDNYWGQGTQVTVSS”: the “polyreactivity (PSR sort gate)” value is “low polyreactivity”.

“QVQLVESGGGLVQAGGSLRLSCAASGSIFTDNAMGWYRQAPGKERALVAAISWIGDSTDYADSVKGRFTISRDNAKNTVYLQMNSLKPDDTAVYFCAADAKVVSPLYRANDIGMYYWGQGTQVTVSS”: the “polyreactivity (PSR sort gate)” value is reported as “low polyreactivity”. With “QVQLVESGGGLVQAGGSLRLSCAASGSIFTDNAMGWYRQAPGKERELVAAITGRGGNTYYADSVKGRFTISRDNAKNTVYLQMNSLKPEDTAVYYCAARIFRTRKPLGYWGQGTQVTVSS”, the “polyreactivity (PSR sort gate)” value is reported as “high polyreactivity”.

With “QVQLVESGGGLVQAGGSLRLSCAASGSIFTENDMGWYRQAPGKEREMVAAIDWDGGRTYYADSVKGRFTISRDNAKNTVYLQMNSLKPEDTAVYYCNKGRYWSNYFYWPSTHVYWGQGTQVTVSS”, the “polyreactivity (PSR sort gate)” value was “high polyreactivity”. With “QVQLVESGGGLVQAGGSLRLSCAASGSIFTFNAMGWYRQAPGKERELVASINWSGGSTYYADSVKGRFTISRDNAKNTVYLQMNSLKPEDTAVYYCNKRRNGYGSQFYYPYDYWGQGTQVTVSS”, the “polyreactivity (PSR sort gate)” value is reported as “low polyreactivity”.

For “QVQLVESGGGLVQAGGSLRLSCAASGSIFTFNAMGWYRQAPGKERELVATISRRTGSTYYADSVKGRFTISRDNAKNTVYLQMNSLKPEDTAVYYCAARRRVYWYNHYNYWGQGTQVTVSS”, the “polyreactivity (PSR sort gate)” value is “high polyreactivity”. On to “QVQLVESGGGLVQAGGSLRLSCAASGSIFTFYAMGWYIQAPGKERELVAAISSGGDTYYADSVKGRFTISRDNAKNTVYLQKNILKPEDTAVYYCAADWRGSYLYGYYYWGQGTQVTVSS”, for which the “polyreactivity (PSR sort gate)” value is on record as “low polyreactivity”. Consider “QVQLVESGGGLVQAGGSLRLSCAASGSIFTFYAMGWYRQAPGKERELVATITWSGGSTFYADSVKGRFTISRDNAKNTVYLQMNSLKPEDTAVYYCAAYRVDYSDAYYYWGQGTQVTVSS”, for which the “polyreactivity (PSR sort gate)” value is “low polyreactivity”. The result for “QVQLVESGGGLVQAGGSLRLSCAASGSIFTGYAMGWSRQAPGKEREMLAAISWSGGSTSYADSVKGRFTISRDNAKNTVYLQMNSLKPEDTAVYYCSTDVRQGSGWRYYYWGQGTQVTVSS” reads “high polyreactivity”; that for “QVQLVESGGGLVQAGGSLRLSCAASGSIFTGYAMGWYRQAPGKERELVAAITYGSGRTYYADSVKGRFTISRDNAKNTLYLQMNSLKPEDTAVYYCAAKWSPYYYYIGYDYWGQGTQVTVSS”, “low polyreactivity”. On to “QVQLVESGGGLVQAGGSLRLSCAASGSIFTGYAMGWYRQAPGKERELVARITKRGGSTYYADSVKGRFTISRDNAKNTVYLQMNSLKPEDTAVFYCNADRKFPYGSYETHDYWGQGTQVTVSS”, for which the “polyreactivity (PSR sort gate)” value is given as “high polyreactivity”. The result for “QVQLVESGGGLVQAGGSLRLSCAASGSIFTHNAMGWYRQAPGKERELVAAISTSGGRTYYADSVKGRFTISRDNAKNTVYLQMNSLKPEDTAVYYCAKLSTARYDYWGQGTQVTVSS” reads “high polyreactivity”; that for “QVQLVESGGGLVQAGGSLRLSCAASGSIFTHNDMGWYRQAPGQERELVAAISSGGSTNYADSVTGRFTISRDNAKNTVYLQMNSLIPVETAVYYCAKSIDGWYWRRRRYDYWGQGTQVTVSS”, “low polyreactivity”.
